According to patent US12534534 (F STAR BETA, dated 2026):

T1: human OX40-mFc (human, UniProt P43489 29-214)
T1 construct: produced in-house; negative control in the ELISA; also called human OX40-mFc-Avi; not shown: mFc part
T1 sequence: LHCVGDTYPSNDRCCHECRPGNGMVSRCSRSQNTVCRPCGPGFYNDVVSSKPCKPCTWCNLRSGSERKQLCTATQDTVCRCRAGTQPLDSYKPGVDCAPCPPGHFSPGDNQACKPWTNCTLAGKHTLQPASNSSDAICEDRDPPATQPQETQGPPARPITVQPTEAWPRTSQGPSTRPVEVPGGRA

T2: mFc-Avi (mouse, UniProt P01863 99-330 = IgG part)
T2 construct: mouse Fc domain with Avi tag; negative control in the ELISA
T2 chain: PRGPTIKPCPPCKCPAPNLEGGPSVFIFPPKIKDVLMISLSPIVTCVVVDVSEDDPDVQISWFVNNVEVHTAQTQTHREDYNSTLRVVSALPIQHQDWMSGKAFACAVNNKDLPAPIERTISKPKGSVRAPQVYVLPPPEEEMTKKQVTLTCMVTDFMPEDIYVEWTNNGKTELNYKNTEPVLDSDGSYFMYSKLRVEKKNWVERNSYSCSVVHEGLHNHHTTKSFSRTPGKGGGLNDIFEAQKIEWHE

T3: cyno CD137 on DO11.10-cCD137 cells (cynomolgus, UniProt Q07011 24-255 (human entry))
T3 construct: full-length cyno CD137 over-expressed on DO11.10 cells; also called cell surface-expressed cyno CD137
T3 chain: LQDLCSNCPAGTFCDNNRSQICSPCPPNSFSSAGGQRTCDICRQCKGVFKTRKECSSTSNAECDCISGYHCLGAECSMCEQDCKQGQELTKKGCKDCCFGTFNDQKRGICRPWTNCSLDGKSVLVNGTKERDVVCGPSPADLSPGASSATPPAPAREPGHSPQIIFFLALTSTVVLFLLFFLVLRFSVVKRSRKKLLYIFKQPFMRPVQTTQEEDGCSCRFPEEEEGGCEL

T4: TNFRSF1A-Fc (human, UniProt P19438 30-211, limits assumed)
T4 construct: bought; also called TNFRSF1A (R&D Systems, 372-RI-050/CF); not shown: Fc part of the bought fusion
T4 sequence (looked up): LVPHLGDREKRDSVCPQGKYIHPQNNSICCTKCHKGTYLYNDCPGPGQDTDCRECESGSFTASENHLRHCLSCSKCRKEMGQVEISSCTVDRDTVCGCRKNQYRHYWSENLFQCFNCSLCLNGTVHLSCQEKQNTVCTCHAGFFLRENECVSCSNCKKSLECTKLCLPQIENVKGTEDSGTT

T5: TNFRSF1B-Fc (human, UniProt P20333 23-257)
T5 construct: bought; also called TNFRSF1B (R&D Systems, 726-R2-050); not shown: Fc part of the bought fusion
T5 sequence (looked up): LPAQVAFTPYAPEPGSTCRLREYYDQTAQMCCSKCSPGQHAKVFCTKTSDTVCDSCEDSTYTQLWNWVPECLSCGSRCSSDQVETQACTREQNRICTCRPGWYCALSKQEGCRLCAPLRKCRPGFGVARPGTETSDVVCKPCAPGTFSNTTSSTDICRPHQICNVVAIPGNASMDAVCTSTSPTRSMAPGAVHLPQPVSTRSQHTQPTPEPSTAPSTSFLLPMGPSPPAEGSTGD

T6: GITR-hFc-Avi (human, UniProt Q9Y5U5 26-161)
T6 construct: in-house produced; not shown: hFc and Avi part
T6 sequence: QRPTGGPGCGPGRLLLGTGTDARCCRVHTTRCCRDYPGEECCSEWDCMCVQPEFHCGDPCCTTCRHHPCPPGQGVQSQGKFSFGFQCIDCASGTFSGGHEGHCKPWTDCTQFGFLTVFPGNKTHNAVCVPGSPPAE

T7: NGFR-Fc (human, UniProt P08138 29-250)
T7 construct: bought; also called NGFR (R&D Systems, 367-NR-050/CF); not shown: Fc part of the bought fusion
T7 sequence (looked up): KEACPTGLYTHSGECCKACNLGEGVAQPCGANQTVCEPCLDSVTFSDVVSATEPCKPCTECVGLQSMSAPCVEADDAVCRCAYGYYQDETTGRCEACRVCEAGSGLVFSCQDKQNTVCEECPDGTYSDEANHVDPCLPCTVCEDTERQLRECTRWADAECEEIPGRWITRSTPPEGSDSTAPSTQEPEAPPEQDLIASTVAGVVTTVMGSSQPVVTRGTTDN


Key:
[1] = target: human CD137 on primary human CD8+ T cells (human, UniProt Q07011 24-255); assay: cell-based or functional assay
human OX40-mFc = target: T1, human OX40-mFc; assay: ELISA on streptavidin plates, mAb 0.1 to 300 nM
Description: (§1) Blocking solution was discarded and a dilution series of anti-CD137 mAb concentrations (0.1 to 300 nM, 3-fold dilutions) was added and incubated for 1 hour at room temperature whilst shaking at 450 rpm. Plates were washed 3× with 300 µl PBS/Tween 0.05%. Goat anti-human IgG (Fc fragment) antibody conjugated to Horseradish Peroxidase (Sigma, A0170) was diluted 1:10000 in PBS and 90 µl was added to the wells. After incubation for 1 hour at 4° C. whilst shaking at 450 rpm, plates were washed 3× with 300 µl PBS/Tween 0.05%, 100 µl TMB substrate (eBioscience, 00-4201-56) was added to each well. The reaction was stopped between 2-10 minutes after addition of TMB by the addition of 50 µl 1M sulphuric acid solution. Optical density (OD) was read at 450-630 nm in a 96-well plate reader within 30 minutes of sulphuric acid addition and analysed using GraphPad Prism software (GraphPad Software, Inc.).

mFc-Avi = target: T2, mFc-Avi; assay: ELISA on streptavidin plates, mAb 0.1 to 300 nM
Description: as §1

streptavidin = target: T8, streptavidin (UniProt P22629 37-163, limits assumed); assay: ELISA on streptavidin plates, mAb 0.1 to 300 nM
T8 construct: negative control in the ELISA; also called Streptavidin plates (Thermo Scientific, 15500)
Description: as §1

[2] = target: T3, cyno CD137 on DO11.10-cCD137 cells; assay: flow cytometry on DO11.10-cCD137 cells, GMFI vs concentration
Description: (§2) Non-specific binding was also assessed by testing binding to DO11.10 cells and HEK293 cells lacking CD137 expression.
(§3) Briefly, DO11.10, HEK293, DO11.10-hCD137 or DO11.10-cCD137 suspensions were prepared in PBS containing 2% BSA (Sigma, A7906) and seeded at 4×10^6 cell/ml with 50 µl/well in V-bottomed 96-well plates (Costar, 3897). mAb dilutions (1·10^-6-100 nM, 10-fold dilutions) were prepared at 2× the final concentration in triplicate in 1×DPBS (Gibco, 14190-094). […] The cells were washed once with PBS and resuspended in 100 µl of PBS containing DAPI (Biotium, 40043) at 1 µg/ml. The cells were analysed using a Canto II flow cytometer (BD Bioscience). Dead cells were excluded and the fluorescence in the FITC channel (488 nm/530/30) was measured. The geometric mean fluorescence intensity (GMFI) values were plotted vs the log concentration of antibody and the resulting curves were fitted using the log (agonist) vs response equation in GraphPad Prism.

[3] = target: T9, human CD137 on DO11.10-hCD137 cells (human, UniProt Q07011 24-255); assay: flow cytometry on DO11.10-hCD137 cells, GMFI vs concentration
T9 construct: full-length human CD137 over-expressed on DO11.10 cells by lentiviral transduction; also called cell surface-expressed human CD137
Description: as §2, §3
Target sequence in this assay (Q07011 24-255): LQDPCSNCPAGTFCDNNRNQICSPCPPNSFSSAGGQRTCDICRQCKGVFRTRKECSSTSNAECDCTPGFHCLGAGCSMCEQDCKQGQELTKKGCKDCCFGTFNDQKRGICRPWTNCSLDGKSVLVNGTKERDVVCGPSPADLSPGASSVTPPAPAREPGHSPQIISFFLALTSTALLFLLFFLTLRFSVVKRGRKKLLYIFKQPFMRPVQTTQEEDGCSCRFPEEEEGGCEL

TNFRSF1A-Fc = target: T4, TNFRSF1A-Fc; assay: SPR, antigen immobilised on CM5 chip
Description: (§4) Flow cell 1 was run as a blank immobilisation. The five FS20-22-49AA/FS30 mAb² were diluted to 1 μM and 1 nM in 1×HBS-EP buffer (GE Healthcare, product code BR100188), allowed to flow over the chip for 3 min and then allowed to dissociate for 4 minutes. A 30-second injection of 10 mM glycine pH 1.5 was used for regeneration. […] Binding levels were determined at the end of the association phase and compared.
(§5) Specificity was tested against the same five human TNFRSF members closely-related to CD137 (TNFRSF1A, TNFRSF1B, GITR, NGFR and CD40) plus an additional closely-related TNFRSF member, human DR6 (DR6-Fc; R&D Systems, 144-DR-100), using SPR as described in Example 3.1.

TNFRSF1B-Fc = target: T5, TNFRSF1B-Fc; assay: SPR, antigen immobilised on CM5 chip
Description: as §4, §5

GITR-hFc-Avi = target: T6, GITR-hFc-Avi; assay: SPR, antigen immobilised on CM5 chip
Description: as §4, §5

NGFR-Fc = target: T7, NGFR-Fc; assay: SPR, antigen immobilised on CM5 chip
Description: as §4, §5

CD40-mFc = target: T10, CD40-mFc (human, UniProt P25942 21-193); assay: SPR, antigen immobilised on CM5 chip
T10 construct: in-house produced; not shown: mFc part
Description: as §4, §5

[4] = target: T9, human CD137 on DO11.10-hCD137 cells; assay: cell binding at 10 nM to DO11.10-hCD137 cells, against the parent FS20-22-49AA/FS30-16

T8 sequence (P22629 37-163 limits assumed): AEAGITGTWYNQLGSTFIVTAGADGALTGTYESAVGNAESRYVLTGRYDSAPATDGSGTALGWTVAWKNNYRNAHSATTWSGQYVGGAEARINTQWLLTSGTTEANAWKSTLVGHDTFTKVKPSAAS
Chain of human CD137 on primary human CD8+ T cells (Q07011 24-255): as the sequence (Q07011 24-255) above
T10 sequence (P25942 21-193): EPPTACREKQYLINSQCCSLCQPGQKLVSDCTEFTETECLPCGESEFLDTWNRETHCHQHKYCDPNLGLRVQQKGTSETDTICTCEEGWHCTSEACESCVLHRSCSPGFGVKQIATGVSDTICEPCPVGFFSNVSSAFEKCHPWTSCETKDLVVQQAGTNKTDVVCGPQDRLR

Binder | Activity of non-crosslinked mAbs at 100 nM (hIL-2 pg/ml) [1] [pg/mL] | EC50 (nM), hIL-2 release, primary human CD8+ T cell activation assay, crosslinked mAb [1] [nM] | Emax (hIL-2 pg/ml), crosslinked mAb [1] [pg/mL] | binding result (human OX40-mFc) | binding result (mFc-Avi) | binding result (streptavidin) | EC50 [2] [nM] | EC50 [3] [nM] | binding result (TNFRSF1A-Fc) | binding result (TNFRSF1B-Fc) | binding result (GITR-hFc-Avi) | binding result (NGFR-Fc) | binding result (CD40-mFc) | fold change of cell binding at 10 nM against the parent clone [4] [fold]
G1AA/FS30-5 (antibody, human IgG1, kappa, L234A L235A, V domains shown, human IgG1 with LALA mutation in CH2; also called FS30-5 mAb) VH: EVQLLESGGGLVQPGGSLRLNCAASGFTFSSYAMSWVRQAPGKGLEWVSAISGSGGSTYYADSVKGRFTISRDNSKNTLYLQMNSLRAEDTAVYYCARSYDKYWGSSMYSGMDYWGQGTLVTVSS VL: EIVLTQSPGTLSLSPGERATLSCRASQSVSSSYLAWYQQKPGQAPRLLIYGASSRATGIPDRFSGSGSGTDFTLTISRLEPEDFAVYYCQQYYSYYPVTFGQGTKVEIKR | 509 | 3.2 | 10900 | no binding (tested: 300 nM) | no binding (tested: 300 nM) | no binding (tested: 300 nM) | 0.45 | 0.24 | – | – | – | – | – | –
G1AA/FS30-15 (antibody, human IgG1, kappa, L234A L235A, V domains shown, human IgG1 with LALA mutation in CH2; also called FS30-15 mAb) VH: EVQLLESGGGLVQPGGSLRLSCAASGFTFSGSGMSWVRQAPGKGLEWVSIIYSTNGDTDYADSVKGRFTISRDNSKNTLYLQMNSLRAEDTAVYYCARDFYDIANYYAFDYWGQGTLVTVSS VL: EIVLTQSPGTLSLSPGERATLSCRASQSVSSSYLAWYQQKPGQAPRLLIYGASSRATGIPDRFSGSGSGTDFTLTISRLEPEDFAVYYCQQAYYDPITFGQGTKVEIKR | 449 | 8.5 | 11100 | no binding (tested: 300 nM) | no binding (tested: 300 nM) | no binding (tested: 300 nM) | 0.31 | 0.15 | binds | binds | binds | binds | binds | –
G1AA/FS30-16 (antibody, human IgG1, kappa, L234A L235A, V domains shown, human IgG1 with LALA mutation in CH2; also called FS30-16 mAb) VH: EVQLLESGGGLVQPGGSLRLSCAASGFTFSNYAMHWVRQAPGKGLEWVSTIDPTDGATNYADSVKGRFTISRDNSKNTLYLQMNSLRAEDTAVYYCARSKYYTYMQYVALDYWGQGTLVTVSS VL: EIVLTQSPGTLSLSPGERATLSCRASQSVSSSYLAWYQQKPGQAPRLLIYGASSRATGIPDRFSGSGSGTDFTLTISRLEPEDFAVYYCQQGSRFFPITFGQGTKVEIKR | 402 | 1.4 | 4840 | no binding (tested: 300 nM) | no binding (tested: 300 nM) | no binding (tested: 300 nM) | 0.36 | 0.21 | – | – | – | – | – | –
G1AA/FS30-10 (antibody, human IgG1, kappa, L234A L235A, V domains shown, human IgG1 with LALA mutation in CH2; also called FS30-10 mAb) VH: EVQLLESGGGLVQPGGSLRLSCAASGFTFSSYDMSWVRQAPGKGLEWVSDIDPTGSKTDYADSVKGRFTISRDNSKNTLYLQMNSLRAEDTAVYYCARDLMVYGFDYWGQGTLVTVSS VL: EIVLTQSPGTLSLSPGERATLSCRASQSVSSSYLAWYQQKPGQAPRLLIYGASSRATGIPDRFSGSGSGTDFTLTISRLEPEDFAVYYCQQSYSYPVTFGQGTKVEIKR | 497 | 5.4 | 8560 | no binding (tested: 300 nM) | no binding (tested: 300 nM) | no binding (tested: 300 nM) | 0.57 | 0.32 | – | – | – | – | – | –
FS20-22-49AA/FS30-16 variant, Methionine (100A) to F (bispecific antibody, V domains shown, Single-site variant of the parent mAb^2 FS20-22-49AA/FS30-16) VH: EVQLLESGGGLVQPGGSLRLSCAASGFTFSNYAMHWVRQAPGKGLEWVSTIDPTDGATNYADSVKGRFTISRDNSKNTLYLQMNSLRAEDTAVYYCARSKYYTYFQYVALDYWGQGTLVTVSS VL: EIVLTQSPGTLSLSPGERATLSCRASQSVSSSYLAWYQQKPGQAPRLLIYGASSRATGIPDRFSGSGSGTDFTLTISRLEPEDFAVYYCQQGSRFFPITFGQGTKVEIKR | – | – | – | – | – | – | – | – | – | – | – | – | – | < 1.6
